# Laboratory results published in patent publication US5688671A, “Mutant aspartokinase gene” (Ajinomoto Co., Inc., priority 1993, dated 1997).
# Residue numbers refer to the chain shown, from its start.
# B1: Cys: mutant aspartokinase 279 Ala→Cys, plasmid p399AKAC (p399AKACB) (protein, UniProt P26512 1-421, looked up, variant A279C)
# Aspartokinase: MALVVQKYGGSSLESAERIRNVAERIVATKKAGNDVVVVCSAMGDTTDELLELAAAVNPVPPAREMDMLLTAGERISNALVAMAIESLGAEAQSFTGSQAGVLTTERHGNARIVDVTPGRVREALDEGKICIVAGFQGVNKETRDVTTLGRGGSDTTAVALAAALNADVCEIYSDVDGVYTADPRIVPNAQKLEKLSFEEMLELAAVGSKILVLRSVEYARAFNVPLRVRSSYSNDPGTLIAGSMEDIPVEEAVLTGVATDKSEAKVTVLGISDKPGECAKVFRALADAEINIDMVLQNVSSVEDGTTDITFTCPRSDGRRAMEILKKLQVQGNWTNVLYDDQVGKVSLVGAGMKSHPGVTAEFMEALRDVNVNIELISTSEIRISVLIREDDLDAAARALHEQFQLGGEDEAVVYAGTGR
# B2: Tyr: mutant aspartokinase 279 Ala→Tyr, plasmid p399AKAY (p399AKAYB) (protein, UniProt P26512 1-421, looked up, variant A279Y)
# Aspartokinase: B1 Aspartokinase with C279Y
# B3: Val: mutant aspartokinase 279 Ala→Val, plasmid p399AKAV (p399AKAVB) (protein, UniProt P26512 1-421, looked up, variant A279V)
# Aspartokinase: B1 Aspartokinase with C279V
# B4: Phe: mutant aspartokinase 279 Ala→Phe, plasmid p399AKAF (p399AKAFB) (protein, UniProt P26512 1-421, looked up, variant A279F)
# Aspartokinase: B1 Aspartokinase with C279F
# Test system: Corynebacterium glutamicum (Brevibacterium lactofermentum) AJ12036
# Assay: L-lysine productivity evaluated by cultivation in production medium
# Format: cell-based
# Conditions: plasmids introduced into AJ12036; cultivation as in Example 3
# Method: The lysine productivity was evaluated by cultivation for the wild type strain AJ12036, the wild type AK plasmid-harboring strain AJ12690, and the mutant AK plasmid-harboring strain AJ12691 (FERM P-12918). The evaluation by cultivation was performed by inoculating the strains to a production medium (containing glucose 100 g, (NH4)2 SO4 55 g, KH2 PO4 1 g, MgSO4.7H2 O 1 g, soybean protein acid hydrolysate "Mamenou" (product of Ajinomoto Co., Ltd., trade name) 50 ml, FeSO4.7H2 O 10 mg, MnSO4.4H2 O 10 mg, nicotinic acid amide 5 mg, and CaCO3 50 g in 1 l of pure water, pH 8.0), and cultivating them with reciprocatory shaking at 31.5° C. for 72 hours. […] The plasmid-holding ratio upon completion of the cultivation was measured by using an index of chloramphenicol resistance as a drug resistance marker of the plasmid.
# The lysine productivity was further evaluated by cultivation for the 9 kinds of these strains by using a method similar to that in Example 3.
row,Molecule,Lys--HCl
1,B1,13.41 g/L
2,B2,25.12 g/L
3,B3,25.02 g/L
4,B4,25.14 g/L

# Test system: AK
# Assay: Thermal stability of AK, treatment at 55° C. for 1.5 hour
# Format: biochemical, Corynebacterium glutamicum
# Conditions: FIG. 6
# Method: The activity-holding ratio after a treatment at 55° C. for 90 minutes is indicated by %.
# Thermal stability was investigated as an index of stability of the enzyme structure constructed by the introduction of mutation. The treatment condition was set at 55° C. for 1.5 hour in which the activity of the wild type AK was about 80%.
row,Molecule,thermal stability compared with the wild type
1,B1,higher stability than that of the wild type
2,B2,higher stability than that of the wild type
3,B3,highest stability
4,B4,higher stability than that of the wild type

# Test system: aspartokinase
# Assay: Aspartokinase (AK) activity of cell-disrupted solutions of Corynebacterium glutamicum strains, with and without L-lysine/L-threonine
# Format: biochemical, Corynebacterium glutamicum (Brevibacterium lactofermentum)
# Conditions: 2 mM lysine + threonine; plasmids introduced into AJ12036
# Excerpt: When a wild type strain is used as a donor for the DNA fragment containing the AK gene, a DNA fragment containing a wild type AK gene can be obtained. The DNA fragment containing the gene for AK in which synergistic feedback inhibition by L-lysine and L-threonine is substantially desensitized can be obtained by using a mutant strain in which synergistic feedback inhibition on the AK activity by L-lysine and L-threonine is substantially desensitized. The mutant strain can be obtained, for example, from a group of cells subjected to an ordinary mutation treatment, ultraviolet light irradiation, or a treatment with a mutating agent such as N-methyl-N'-nitro-N-nitrosoguanidine (NTG). The AK activity can be measured by using a method described in Miyajima, R. et al., The Journal of Biochemistry (1968), 63(2), 139-148.
# Strains were prepared by introducing the wild type AK plasmid p399AKYB and the mutant AK plasmid p399AK9B respectively into AJ12036 strain (FERM P-7559) as a wild type strain of Corynebacterium glutamicum (Brevibacterium lactofermentum). The genes were introduced into Corynebacterium by means of an electric pulse method. The aspartokinase activity was measured for Corynebacterium glutamicum (Brevibacterium lactofermentum) AJ12036 strain as a host, AJ12690 strain harboring the wild type AK plasmid, and AJ12691 (FERM P12918) strain harboring the mutant AK plasmid. The activity was measured in accordance with an ordinary method (see Miyajima, R. et al., The Journal of Biochemistry (1968) 63(2), 139-148). […]
# Strains were prepared by introducing 8 kinds of the plasmids shown in Table 3 into AJ12036 strain (FERM P-7559) as a wild type strain of Corynebacterium glutamicum (Brevibacterium lactofermentum) in the same manner as Example 3. The AK activity was measured for each of the strains. […] The desensitization degree of inhibition by lysine and/or threonine was similar to those in Example 6.
row,Molecule,2 mM Lys + Thr (desensitization degree of inhibition)
1,B1,60.6%
2,B2,32.2%
3,B3,75.5%
4,B4,32.4%

# Same assay, conditions: lysine 5 mM; plasmids introduced into AJ12036
row,Molecule,5 mM Lys (desensitization degree of inhibition)
1,B1,66.5%
2,B2,16.1%
3,B3,60.5%
4,B4,14.6%

# Same assay, conditions: plasmids introduced into AJ12036; Table 5
row,Molecule,Specific activity
1,B1,267.0 mU/mg protein
2,B2,425.6 mU/mg protein
3,B3,448.9 mU/mg protein
4,B4,447.7 mU/mg protein

# Same assay, conditions: threonine 5 mM; plasmids introduced into AJ12036
row,Molecule,5 mM Thr (desensitization degree of inhibition)
1,B1,135.7%
2,B2,104.8%
3,B3,103.5%
4,B4,105.0%

# Test system: AK
# Assay: AK enzyme activity and inhibition by lysine/threonine in cell-free extracts of AK-deficient Escherichia coli Gif106M1 transformants
# Format: biochemical, Corynebacterium glutamicum
# Conditions: E. coli Gif106M1 cell-free extracts
# Excerpt: Bacteriol. 112, 84-92 (1972), Theze, J. et al., J. […] It is known that most of genes of bacteria belonging to the genus Corynebacterium are expressed in Escherichia coli. In addition, the AK gene was ligated at a position downstream from lac promoter on pHSG399. Thus it was postulated that the gene could be expressed in Escherichia coli. […] Thus it was confirmed that AK from the bacteria belonging to the genus Corynebacterium was expressed and operated in cells of Escherichia coli. Subsequently, cell-free extracts were prepared from bacterial cells, and the enzyme activity of AK was measured. Upon measurement of the enzyme activity of AK, various concentrations of lysine and threonine were added to enzyme reaction solutions to investigate the degree of inhibition (FIG. 2). […] (Ki value: 0.4 mM→5.0 mM). […] Cell-free extracts were prepared, and enzymes were analyzed.
Molecule,concerted inhibition by lysine+threonine,inhibition by lysine alone as compared with the wild type
B1,enhanced,equivalent to that in the wild type
B2,–,enhanced
B4,–,enhanced

# Same assay, conditions: E. coli Gif106M1 cell-free extracts; Table 4
row,Molecule,Specific activity
1,B1,15.4 mU/mg protein
2,B2,14.4 mU/mg protein
3,B3,21.8 mU/mg protein
4,B4,18.7 mU/mg protein

# Same assay, conditions: lysine 5 mM+threonine 5 mM; activity without addition = 100%; E. coli Gif106M1 extracts
row,Molecule,"5 mM Lys + Thr (degree of desensitization of inhibition, activity-holding ratio)"
1,B1,17.0%
2,B2,19.4%
3,B3,52.3%
4,B4,18.2%

# Same assay, conditions: lysine 5 mM; activity without addition = 100%; E. coli Gif106M1 extracts
row,Molecule,"5 mM Lys (degree of desensitization of inhibition, activity-holding ratio)"
1,B1,56.3%
2,B2,14.4%
3,B3,51.1%
4,B4,12.1%

# Same assay, conditions: threonine 5 mM; activity without addition = 100%; E. coli Gif106M1 extracts
row,Molecule,"5 mM Thr (degree of desensitization of inhibition, activity-holding ratio)"
1,B1,108.1%
2,B2,103.6%
3,B3,98.3%
4,B4,103.0%
